Laboratory results published in article PMC7749166 (Communications Biology, 2020).

Tests used:
C5aR∆Tyr = assay: FD-/FV-based AFM dynamic force spectroscopy vs Tyr mutant (Y11F, Y14F); format: binding, human; conditions: C5a tip (probes effector site), FNdY fit
Source text: Finally, to obtain the full picture of the binding mechanism between C5a and its receptor, we also investigated the binding interaction between the C-terminal segment of C5a and the effector site. To achieve this, we abolished the interaction that the rigid core of C5a establishes with sulfonated residues at the binding site, so the C5aR∆Tyr mutant with mutation sites Y11F and Y14F was generated. The lack of sulfonation on the C5aR∆Tyr mutant was validated by western blot using anti-sulfated tyrosine antibodies (Fig. S1). The interaction between the C5a ligand and C5aR∆Tyr was measured and the dependence of the rupture force with the loading rate was plotted in the DFS graph in Fig. 5d. We extracted an equilibrium force Feq of 32 ± 5 pN, a binding equilibrium free energy ΔGbu of −4.7 ± 1.4 kcal mol^−1, and a receptor–ligand half-residence time, τ0.5 of 0.6 ms.
(§1) The reconstituted C5aR sample solution (either wt-C5aR or mutants) was 20-fold diluted in fusion buffer solution (20 mM HEPES, 300 mM NaCl, and 25 mM MgCl2) and adsorbed on freshly cleaved mica for 15 min. After rinsing with imaging buffer (20 mM HEPES and 300 mM NaCl) the sample was transferred to the AFM.
(§2) Rectangular Si3N4 AFM cantilevers with silicon tips (BioLever mini, Bruker) were first cleaned with chloroform for 10 min, rinsed with ethanol, N2 dried, and then cleaned for 15 min in an ultraviolet radiation and ozone cleaner (UV-O, Jetlight, CA, USA). For the aminofunctionalization, the cantilevers were immersed in an ethanolamine solution (3.3 g ethanolamine in 6.6 ml DMSO) overnight and then rinsed in DMSO (3 × 1 min) and ethanol (3 × 1 min), followed by N2 drying. This was followed by the N-hydroxysuccinimide (NHS)-PEG27-acetal linker attachment. A 1 mg portion of the NHS-PEG27-acetal linker (JKU, Linz, Austria) was diluted in 0.5 ml chloroform with 30 µl triethylamine and the cantilevers were immersed in this solution for 2 h. […]

C5aR extracellular side = assay: AFM affinity imaging with C5a tip: specificity and receptor height; format: binding, human; conditions: free C5a in solution
Method: as §1
as §2, with “attachment.” for “attachment. A 1 mg portion of the NHS-PEG27-acetal linker (JKU, Linz, Austria) was diluted in 0.5 ml chloroform with 30 µl triethylamine and the cantilevers were immersed in this solution for 2 h.”
In FD-based AFM measurements, the AFM cantilever is oscillated in a sinusoidal manner well below its resonance frequency, while the sample surface is contoured pixel-by-pixel. For each approach–retraction cycle of the oscillating cantilever, a force–distance curve is recorded. […] Adhesion maps were recorded using a scan rate of 0.2 Hz and 256 × 256 pixels. […]
Several control experiments were designed to ensure that the measured interactions were indeed specific and the functionalization of the AFM tip successful. […]

[1] = tested on: C5aR with mutations Y11F and Y14F; conditions: cited from earlier work
Source text: In line with our results, intrinsic binding energies have been previously described for intramolecular binding events inv ...

B1: C5a: C5a, a large 74-amino acid glycoprotein; endogenous ligand of C5aR (His6-tag at N-terminal end for AFM tips) (protein)
chain: TLQKKIEEIAAKYKHSVVKKCCYDGACVNNDETCEQRAARISLGPRCIKAFTECCVVASQLRANISHKDMQLGR
modifications: left off: His6, N-terminal, kept
residence time τ0.5 (C5aR∆Tyr): 0.6 ms | binding equilibrium free energy ΔGbu (C5aR∆Tyr; ± s.e.m.): -4.7 ± 1.4 kcal/mol | equilibrium force Feq (C5aR∆Tyr; ± s.e.m.): 32 ± 5 pN | binding probability of C5a tip after blocking with free C5a (C5aR extracellular side): significantly reduces the binding probability | signaling of C5aR induced by C5a upon Y11F and Y14F mutations [1]: could almost abolish the signaling of C5aR
